Test system: IgG Ab to PEG in patient plasma
Assay: Indirect ELISA detection of APAs in patient plasma against Adagen-coated plates
Format: binding, human
Settings: 5 replicates
Description: Informed signed consent was obtained from either the patient or from next of kin. (A) ELISA detection of APAs: Plasma samples diluted 1:21 in 1% BSA in PBS were tested by ELISA for IgG Ab to PEG, but using Adagen® (Sigma Tau Pharmaceuticals, Gaithersburg, Md.) rather than Krystexxa® as the antigen. (B) Surface fluoroimmunoassay against patient APAs: Polymer-coated surfaces were incubated with patient plasma samples diluted 1:3 in PBS for 1 h, and then washed 3 times with wash buffer (0.5% CHAPS in PBS). Next, the surfaces were exposed to a 1 μg/mL solution of Cy5-goat-anti-human IgG detection Ab (R & D Systems, Inc.) for 30 min. Surfaces were then rinsed again to remove any loosely-bound proteins, centrifuged at 4800 rpm for 15 s to wick away excess liquid, then allowed to dry under ambient conditions. Fluorescence imaging and analysis of all samples was performed using an Axon Genepix 4400 tabletop scanner and ImageJ Fiji as described above.
We performed an indirect ELISA on these patient plasma samples to quantify the level of IgG binding to Adagen (PEGylated adenosine deaminase).

B1: ADAGEN: a PEGylated adenosine deaminase for treating severe combined immunodeficiency disease (SCID) (conjugate)
chain: AQTPAFNKPKVELHVHLDGAIKPETILYYGRKRGIALPADTPEELQNIIGMDKPLSLPEFLAKFDYYMPAIAGCREAVKRIAYEFVEMKAKDGVVYVEVRYSPHLLANSKVEPIPWNQAEGDLTPDEVVSLVNQGLQEGERDFGVKVRSILCCMRHQPSWSSEVVELCKKYREQTVVAIDLAGDETIEGSSLFPGHVKAYAEAVKSGVHRTVHAGEVGSANVVKEAVDTLKTERLGHGYHTLEDATLYNRLRQENMHFEVCPWSSYLTGAWKPDTEHPVVRFKNDQVNYSLNTDDPLIFKSTLDTDYQMTKNEMGFTEEEFKRLNINAAKSSFLPEDEKKELLDLLYKAYGMPSPA
In the case of B1, the “OD 405 nm Avg” value (Pt# 1, APA neg, sample 929-237-01) is reported as 0.149, the “OD 405 nm Avg” value (Pt# 2, APA pos, sample 929-219-07) is reported as 0.714 and the “OD 405 nm Avg” value (Pt# 3, APA pos, sample 929-237-12) is reported as 1.243. The “OD 405 nm Avg” value (Pt# 4, APA pos, sample 929-241-07) was 1.679 and the “OD 405 nm Avg” value (Pt# 5, APA pos, sample 929-218-21) was 3.059.
